Test results reported in patent publication JP2020148511A (dated 2020).

How the values were obtained:
[1] = biological target: A型インフルエンザウィルス亜型H1N1(A/Puerto Rico/8/1934)の核内タンパク質(NP抗原) (Influenza A virus H1N1 (A/Puerto …, UniProt P03466 1-498)); assay: sandwich ELISA, […] (capture) […]
[2] = biological target: H1N1インフルエンザウィルスA型(A/Puerto Rico/8/34/Mount Sinai)由来のリコンビナント核内タンパク質 (Influenza A virus H1N1 (A/Puerto …, UniProt P03466 1-498)); assay: phage ELISA, NP coated at 2 ug/mL, anti-M13 detection, A450

B1: 抗体A1 (VHH antibody having the amino acid sequence of SEQ ID NO: 1) (VHH)
VHH: QLQLVESGGGLVQAGGSLRLSCAASGSAFSLYAMGWHRQAPGKQRELVAYITNGDITNYADSVQGRVIISRDNAKNTVYLHMNSLKPEDTAVYYCYAVGGRTFWGQGTQVTVSS
binding result [1]: binds

B2: 抗体A4 (VHH antibody having the amino acid sequence of SEQ ID NO: 4) (VHH)
VHH: EVQLVESGGGLVQAGDSLRLSCAASGRTFINLDMGWFRQPPGKEREYVAAITRNGAITSYADSAKGRFTISRDNAKNTVSLEMNSLKPEDTGVYYCAAYSISNYGSGWYKPDYWGQGAQVTVSS
binding result [1]: binds

B3: 抗体A2 (VHH antibody having the amino acid sequence of SEQ ID NO: 2) (VHH)
VHH: QVQLVESGGGLVQTGGPLRLSCAVSDRTDSNYAMGWFRQAPGKEREFVAAISGTGYVTGYADSARNRFTLSRDNGKNAVYLQMNSLEPADTAVYYCAATSDQRYPGPRSSGYDYWGQGTQVTVSS
binding result [1]: binds

B4: 抗体A3 (VHH antibody having the amino acid sequence of SEQ ID NO: 3) (VHH)
VHH: EVQLVESGGGLVQPGGSLSLSCAASGFTFSNYYMGWFRQAPGKERQSLATVNSGGTGEAYADSIRGRFTISRDNAKNTVTLQMSSLQPEDTAVYYCARVDGRVLSTIVVSYDYWGQGTQVTVSS
binding result [2]: binds | binding result [1]: binds
